Reference: WO2021251460A1 (dated 2021)

T1: human Glypican-1 (human, UniProt P35052 24-530)
T1 construct: Endogenous GPC1 on human cancer cell lines: BxPC-3 in the FACS and internalization assays; TE8, TE14, BxPC3, KP-2 and PK-8 in the ADC assay; also called GPC-1; GPC1
T1 sequence: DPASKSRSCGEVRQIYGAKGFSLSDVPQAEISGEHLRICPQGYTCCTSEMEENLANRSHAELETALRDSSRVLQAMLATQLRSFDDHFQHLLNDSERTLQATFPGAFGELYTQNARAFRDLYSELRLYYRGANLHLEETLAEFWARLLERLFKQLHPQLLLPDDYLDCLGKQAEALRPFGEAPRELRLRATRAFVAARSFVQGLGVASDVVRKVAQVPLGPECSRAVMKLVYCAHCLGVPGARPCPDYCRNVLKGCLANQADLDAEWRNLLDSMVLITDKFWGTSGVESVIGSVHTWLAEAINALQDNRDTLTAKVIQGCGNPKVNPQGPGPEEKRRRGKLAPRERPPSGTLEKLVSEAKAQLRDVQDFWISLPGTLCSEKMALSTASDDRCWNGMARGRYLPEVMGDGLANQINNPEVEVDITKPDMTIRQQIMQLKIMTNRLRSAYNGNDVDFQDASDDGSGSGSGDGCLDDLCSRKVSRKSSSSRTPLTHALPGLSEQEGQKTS


Assays:
[1] = target: T1, human Glypican-1; assay: FACS on BxPC-3 cells pre-treated with GPC1-ADC (01a033) MMAE, streptavidin-PE detection
[2] = target: T1, human Glypican-1; assay: FACS titration on BxPC-3 cells, FITC anti-mouse IgG secondary

| binding result [1] | binding result [2] | Binder |
| --- | --- | --- |
| binds |  | biotin-labeled anti-GPC1 antibody 02b006 (antibody, mouse IgG2a, kappa, V domains shown, biotin-labeled (site not given), Detection antibody for GPC1 left on the cell surface in the internalization assay, read out with streptavidin-PE; also called anti-GPC1 mAb (biotin-labeled 02b006); K090-02b006) VH: EVQLVESGGGLVKPGGSRKLSCAASGFTFSDYGMHWVRQAPEKGLEWVAYISSGSSTIYYADTVKGRFTISRDNAKNTLFLQMTSLRSEDTAIYYCVRHSYYNYDIGGYYAMDYWGQGTSVTVSS VL: DIVLTQSPSSLSASLGERVSLTCRASQEISGYLSWLQQKPDGTIKRLIYAASTLDSGVPKRFSGSRSGSDYSLTISSLESEDFADYYCLQYASYPLTFGAGTKLEIKR |
|  | binds | anti-GPC1 monoclonal antibody (clone K090-01a033) (antibody, mouse IgG2a, kappa, V domains shown, Mouse monoclonal antibody; mouse IgG2a kappa (MOPC173) was used as its isotype control; also called mouse anti-GPC-1 clone 01a033; mouse anti-human Glypican-1 mAb (01a033)) VH: QVQLKQSGPELVKPGASVKISCKASGYSFTGYYMHWVKQSPEKSLEWIGEINPSTGDTTYNQKFKAKATLTVDKSSSTAYMQLKSLTSEDSAVYYCAREKRDDGVFAYWGQGTLVTVSS VL: DIVMSQSPKSMSMSVGERVALSCKASENVGTYVSWYQQKPEQSPKLLIYGASNRYTGVPDRFTGSGSATDFTLTISSVQAEDLADYYCGQSYSYPLTFGAGTKLELKR |
|  | binds | GPC1-ADC (01a033) MMAE (antibody, mouse IgG2a, kappa, V domains shown, MC-vc-PAB-MMAE on reduced interchain cysteine residues; DAR 3.7 per antibody; MC-vc-PAB-MMAE (maleimidocaproyl-valine-citrulline-p-aminobenzyloxycarbonyl-monomethyl auristatin E) on reduced interchain cysteine residues; DAR 3.7 per antibody, also called GPC1-ADC (MMAE); αGPC1-CL-MMAE) VH: QVQLKQSGPELVKPGASVKISCKASGYSFTGYYMHWVKQSPEKSLEWIGEINPSTGDTTYNQKFKAKATLTVDKSSSTAYMQLKSLTSEDSAVYYCAREKRDDGVFAYWGQGTLVTVSS VL: DIVMSQSPKSMSMSVGERVALSCKASENVGTYVSWYQQKPEQSPKLLIYGASNRYTGVPDRFTGSGSATDFTLTISSVQAEDLADYYCGQSYSYPLTFGAGTKLELKR |
